Where a chain is given by its changes, count along the chain named. Values belong to the binder of their own block, whether it stands above or below them.
Columns and labels:
[1] = target: T1, wildtype human α-synuclein (human, UniProt P37840 1-140); assay: SPR (Biacore), antibody captured on anti-human IgG chip, alpha synuclein flowed over, 1:1 model, global fit
Procedure: An anti-human IgG CMS Biacore chip was prepared following the protocol supplied by GE Healthcare.
Data was collected and double reference subtracted to account for drift and a small amount of nonspecific binding. The data was analyzed using BIAcore evaluation software using a 1:1 model and a global fit.

[2] = target: T1, wildtype human α-synuclein; assay: ELISA on α-synuclein, twofold dilution series of the antibody

Kd [1]: 120 nM | koff [1]: 0.0051 s⁻¹
B1: humanized 5C1 H4L3 (antibody, V domains shown)
VH: QVQLVQSGAELKKPGSSVKVSCKASGYTFTNYWMNWVRQAPGQGLEWIGATNPNNGYTDYNQRFKDRATLTADKSTNTAYMELSSLRSEDTAVYYCASGGHLAYWGQGTLVTVSS
VL: DVVMTQSPLSLSVSPGEPASISCRSSQSLFHSKGNTYLHWYLQKPGQSPQLLINRVSNRFSGVPDRFSGSGSGTDFTLKISRVEAEDVGVYFCSQSAHVPWTFGGGTKVEIK
notes: The human constant region is not specified; also called h5C1_H4L3

Kd [1]: 68.7 nM | koff [1]: 0.0051 s⁻¹ | kon [1]: 75000 M⁻¹ s⁻¹
B2: murine 5C1 antibody (antibody, mouse IgG1, V domains shown)
VH: QVQLQQSGAELAKPGTSVQMSCKASGYTFTNYWMNWIKARPGQGLEWIGATNPNNGYTDYNQRFKDKAILTADKSSNTAYMHLSSLTSEDSAVYFCASGGHLAYWGQGTVVTVSA
VL: B1 VL with S7I, S10Y, E17D, P18Q, Q50K, R82G, V88L, V109L, K112R
notes: also called m5C1; mouse 5C1

Kd [1]: 86 nM | koff [1]: 0.0053 s⁻¹
B3: chimeric 5C1 antibody (antibody, V domains shown)
VH: B2 VH
VL: B1 VL with S7I, S10Y, E17D, P18Q, Q50K, R82G, V88L, V109L, K112R
notes: also called Ch5C1

binding result [2]: binds
B4: humanized 5C1 H3L3 (antibody, V domains shown)
VH: B1 VH with Y95F
VL: B1 VL
notes: The constant region is not specified

binding result [2]: binds
B5: humanized 5C1 H3L1 (antibody, V domains shown)
VH: B1 VH with Y95F
VL: B1 VL with Q50K
notes: as for B4

Kd [1]: 601 nM
B6: humanized 5C1 H4L4 (antibody, V domains shown)
VH: B1 VH
VL: B1 VL with V2I, N54Y
notes: The human constant region is not specified; also called h5C1_H4L4

Kd [1]: 283 nM
B7: humanized 5C1 H5L3 (antibody, V domains shown)
VH: B1 VH with A68V, L70I
VL: B1 VL
notes: The human constant region is not specified; also called h5C1_H5L3

B8: humanized 5C1 H1L1 (antibody, V domains shown)
VH: B1 VH with S98R
VL: B1 VL with Q50K
notes: as for B4
binding result [2]: no binding (tested: 1000 (x axis has no unit))

Kd [1]: 1240 nM
B9: humanized 5C1 H3L4 (antibody, V domains shown)
VH: B1 VH with Y95F
VL: B1 VL with V2I, N54Y
notes: It was captured on an anti-human IgG chip, so it carries a human constant region, which is not specified; also called h5C1_H3L4

Kd [1]: 1060 nM
B10: humanized 5C1 H5L4 (antibody, V domains shown)
VH: B1 VH with A68V, L70I
VL: B1 VL with V2I, N54Y
notes: The human constant region is not specified; also called h5C1_H5L4
